Measurements from US20180155451A1 (published 2018).

B1: GpH7-A5/GpH7-B3 variant E269_14T/GpL16-k0 (antibody, human IgG1, kappa)
heavy 1: not shown
heavy 2: not shown
light: DIVMTQSPLSLPVTPGEPASISCQASESLVHSNRNTYLHWYLQKPGQSPQLLIYKVSNRFSGVPDRFSGSGSGTDFTLKISRVEAEDVGVYYCSQNTHVPPTFGQGTKVEIERTVAAPSVFIFPPSDEQLKSGTASVVCLLNNFYPREAKVQWKVDNALQSGNSQESVTEQDSKDSTYSLSSTLTLSKADYEKHKVYACEVTHQGLSSPVTKSFNRGEC
notes: heterodimerized; also called He Ab E269_14T
B2: GpH7-A5/GpH7-B3 variant E333_04F/GpL16-k0 (antibody, human IgG1, kappa)
heavy 1: not shown
heavy 2: not shown
light: B1 light
notes: heterodimerized; also called He Ab E333_04F
B3: GpH7-A5/GpH7-B3 variant P238_03V/GpL16-k0 (antibody, human IgG1, kappa)
heavy 1: not shown
heavy 2: not shown
light: B1 light
notes: heterodimerized; also called He Ab P238_03V
B4: GpH7-A5/GpH7-B3 variant E333_06M/GpL16-k0 (antibody, human IgG1, kappa)
heavy 1: not shown
heavy 2: not shown
light: B1 light
notes: heterodimerized; also called He Ab E333_06M
B5: GpH7-A5/GpH7-B3 variant L328_10E/GpL16-k0 (antibody, human IgG1, kappa)
heavy 1: not shown
heavy 2: not shown
light: B1 light
notes: heterodimerized; also called He Ab L328_10E
B6: GpH7-A5/GpH7-B3 variant P238_04F/GpL16-k0 (antibody, human IgG1, kappa)
heavy 1: not shown
heavy 2: not shown
light: B1 light
notes: heterodimerized; also called He Ab P238_04F
B7: GpH7-A5/GpH7-B3 variant E333_16H/GpL16-k0 (antibody, human IgG1, kappa)
heavy 1: not shown
heavy 2: not shown
light: B1 light
notes: heterodimerized; also called He Ab E333_16H
B8: GpH7-A5/GpH7-B3 variant L234_04F/GpL16-k0 (antibody, human IgG1, kappa)
heavy 1: not shown
heavy 2: not shown
light: B1 light
notes: heterodimerized; also called He Ab L234_04F
B9: GpH7-A5/GpH7-B3 variant I332_12R/GpL16-k0 (antibody, human IgG1, kappa)
heavy 1: not shown
heavy 2: not shown
light: B1 light
notes: heterodimerized; also called He Ab I332_12R
B10: GpH7-A5/GpH7-B3 variant E333_12R/GpL16-k0 (antibody, human IgG1, kappa)
heavy 1: not shown
heavy 2: not shown
light: B1 light
notes: heterodimerized; also called He Ab E333_12R
B11: GpH7-A5/GpH7-B3 variant H268_14T/GpL16-k0 (antibody, human IgG1, kappa)
heavy 1: not shown
heavy 2: not shown
light: B1 light
notes: heterodimerized; also called He Ab H268_14T
B12: GpH7-A5/GpH7-B3 variant E333_08L/GpL16-k0 (antibody, human IgG1, kappa)
heavy 1: not shown
heavy 2: not shown
light: B1 light
notes: heterodimerized; also called He Ab E333_08L
B13: GpH7-A5/GpH7-B3 variant E333_13S/GpL16-k0 (antibody, human IgG1, kappa)
heavy 1: not shown
heavy 2: not shown
light: B1 light
notes: heterodimerized; also called He Ab E333_13S
B14: GpH7-A5/GpH7-B3 variant E333_05P/GpL16-k0 (antibody, human IgG1, kappa)
heavy 1: not shown
heavy 2: not shown
light: B1 light
notes: heterodimerized; also called He Ab E333_05P
B15: GpH7-A5/GpH7-B3 variant K334_10E/GpL16-k0 (antibody, human IgG1, kappa)
heavy 1: not shown
heavy 2: not shown
light: B1 light
notes: heterodimerized; also called He Ab K334_10E
B16: GpH7-A5/GpH7-B3 variant P238_06M/GpL16-k0 (antibody, human IgG1, kappa)
heavy 1: not shown
heavy 2: not shown
light: B1 light
notes: heterodimerized; also called He Ab P238_06M
B17: GpH7-A5/GpH7-B3 variant E333_02A/GpL16-k0 (antibody, human IgG1, kappa)
heavy 1: not shown
heavy 2: not shown
light: B1 light
notes: heterodimerized; also called He Ab E333_02A
B18: GpH7-A5/GpH7-B3 variant L234_03V/GpL16-k0 (antibody, human IgG1, kappa)
heavy 1: not shown
heavy 2: not shown
light: B1 light
notes: heterodimerized; also called He Ab L234_03V
B19: GpH7-A5/GpH7-B3 variant L234_10E/GpL16-k0 (antibody, human IgG1, kappa)
heavy 1: not shown
heavy 2: not shown
light: B1 light
notes: heterodimerized; also called He Ab L234_10E; GpH7-A5/GpH7-B16/GpL16-k0
B20: GpH7-A5/GpH7-B3 variant K334_20W/GpL16-k0 (antibody, human IgG1, kappa)
heavy 1: not shown
heavy 2: not shown
light: B1 light
notes: heterodimerized; also called He Ab K334_20W
B21: GpH7-A5/GpH7-B3 variant E333_11K/GpL16-k0 (antibody, human IgG1, kappa)
heavy 1: not shown
heavy 2: not shown
light: B1 light
notes: heterodimerized; also called He Ab E333_11K
B22: GpH7-A5/GpH7-B3 variant L234_07I/GpL16-k0 (antibody, human IgG1, kappa)
heavy 1: not shown
heavy 2: not shown
light: B1 light
notes: heterodimerized; also called He Ab L234_07I
B23: GpH7-A5/GpH7-B3 variant H268_07I/GpL16-k0 (antibody, human IgG1, kappa)
heavy 1: not shown
heavy 2: not shown
light: B1 light
notes: heterodimerized; also called He Ab H268_07I
B24: GpH7-A5/GpH7-B3 variant H268_02A/GpL16-k0 (antibody, human IgG1, kappa)
heavy 1: not shown
heavy 2: not shown
light: B1 light
notes: heterodimerized; also called He Ab H268_02A
B25: GpH7-A5/GpH7-B3 variant I336_03V/GpL16-k0 (antibody, human IgG1, kappa)
heavy 1: not shown
heavy 2: not shown
light: B1 light
notes: heterodimerized; also called He Ab I336_03V
B26: GpH7-A5/GpH7-B3 variant K326_16H/GpL16-k0 (antibody, human IgG1, kappa)
heavy 1: not shown
heavy 2: not shown
light: B1 light
notes: heterodimerized; also called He Ab K326_16H
B27: GpH7-A5/GpH7-B3 variant E333_03V/GpL16-k0 (antibody, human IgG1, kappa)
heavy 1: not shown
heavy 2: not shown
light: B1 light
notes: heterodimerized; also called He Ab E333_03V
B28: GpH7-A5/GpH7-B3 variant E269_19Q/GpL16-k0 (antibody, human IgG1, kappa)
heavy 1: not shown
heavy 2: not shown
light: B1 light
notes: heterodimerized; also called He Ab E269_19Q
B29: GpH7-A5/GpH7-B3 variant I336_01G/GpL16-k0 (antibody, human IgG1, kappa)
heavy 1: not shown
heavy 2: not shown
light: B1 light
notes: heterodimerized; also called He Ab I336_01G
B30: GpH7-A5/GpH7-B3 variant G236_02A/GpL16-k0 (antibody, human IgG1, kappa)
heavy 1: not shown
heavy 2: not shown
light: B1 light
notes: heterodimerized; also called He Ab G236_02A

Molecular target: T1, FcγRIa (human, UniProt P12314 16-292)
T1 construct: extracellular domain; also called FcgRI; CD64
T1 sequence (P12314 16-292): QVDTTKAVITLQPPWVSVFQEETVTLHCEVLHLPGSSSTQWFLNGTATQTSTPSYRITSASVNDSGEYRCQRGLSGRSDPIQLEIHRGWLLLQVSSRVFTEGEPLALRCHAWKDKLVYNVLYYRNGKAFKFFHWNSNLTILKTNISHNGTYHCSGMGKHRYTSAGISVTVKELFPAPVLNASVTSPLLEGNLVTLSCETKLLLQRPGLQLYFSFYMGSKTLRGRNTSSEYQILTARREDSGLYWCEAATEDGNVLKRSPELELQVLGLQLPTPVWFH
Assay: SPR; vs GpH7-A5/GpH7-B3/GpL16-k0=100

Binder	He/Con_1a
B1	106 % of control
B2	102 % of control
B3	100 % of control
B4	102 % of control
B5	101 % of control
B6	101 % of control
B7	101 % of control
B8	101 % of control
B9	100 % of control
B10	102 % of control
B11	112 % of control
B12	102 % of control
B13	103 % of control
B14	102 % of control
B15	110 % of control
B16	102 % of control
B17	103 % of control
B18	104 % of control
B19	100 % of control
B20	106 % of control
B21	102 % of control
B22	103 % of control
B23	108 % of control
B24	109 % of control
B25	105 % of control
B26	103 % of control
B27	105 % of control
B28	105 % of control
B29	109 % of control
B30	100 % of control
